Test results published in patent publication US20120316071A1 (published 2012).

Legend:
[1] = target: T1, rHuman CD44/Fc Chimera, CF (R&D Systems Cat#3660-CD) (human, UniProt P16070 21-220); experiment: ECL Multispot (MSD) assay; antigen spotted on plate, Fab in solution;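 note: fab bound 1 h at 20 °C, detected by TAG-labelled antibody electrochemiluminescence, signal relative to each well's blank, ratio of 4 or more marks a hit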
T1 construct: Bought reagent

[2] = target: T2, rHuman IGF-1 sR, CF (R&D Systems Cat#391-GR) (human, UniProt P08069 31-932); experiment: as above
T2 construct: Bought soluble receptor; the column head 'IGF-1' means IGF-1 sR; also called insulin-like growth factor-1 soluble receptor

[3] = target: T3, rHuman P-Cadherin/Fc Chimera, CF (R&D Systems Cat#861-PC) (human, UniProt P22223 108-654); experiment: as above
T3 construct: Bought reagent

[4] = target: T4, rHuman Erythropoietin R/Fc Chimera, CF (R&D Systems Cat#963-ER) (human, UniProt P19235 25-250); experiment: as above
T4 construct: Bought reagent; also called EPO R; Epo R/Fc
T4 sequence (looked up): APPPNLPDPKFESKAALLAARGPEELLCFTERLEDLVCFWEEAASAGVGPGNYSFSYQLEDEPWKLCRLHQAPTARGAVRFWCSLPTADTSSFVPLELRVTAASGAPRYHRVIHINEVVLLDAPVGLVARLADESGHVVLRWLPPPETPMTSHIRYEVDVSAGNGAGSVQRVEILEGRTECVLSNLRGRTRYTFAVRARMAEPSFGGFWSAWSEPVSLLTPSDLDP

[5] = target: T5, rHuman ErbB2/Fc Chimera, CF (R&D Systems Cat#1129-ER) (human, UniProt P04626 23-652); experiment: as above
T5 construct: Bought reagent; also called human epidermal growth factor 2 receptor

[6] = target: T6, rHuman EGF R/Fc Chimera, CF (R&D Systems Cat#344-ER) (human, UniProt P00533 25-645); experiment: as above
T6 construct: Bought reagent; also called epidermal growth factor receptor

[7] = target: T7, rHuman HGF R/c-MET/Fc Chimera, CF (R&D Systems Cat#358-MT/CF) (human, UniProt P08581 25-932); experiment: as above
T7 construct: Bought reagent; also called HGF R/Fc; hepatocyte growth factor receptor

[8] = target: T8, rHuman Notch-1/Fc Chimera, CF (R&D Systems Cat#3647-TK) (human, UniProt P46531 19-526); experiment: as above
T8 construct: Bought reagent

[9] = target: T9, Recombinant Human DLL4 (delta-like protein 4) (human, UniProt Q9NR61 27-524); experiment: 96-well plate ECL (MSD) assay, DLL4 immobilised, Fab at 10 nM
T9 construct: also called rHuman DLL4; Delta-like 4

[10] = target: T9, Recombinant Human DLL4 (delta-like …); experiment: ELISA, DLL4 coated on the plate, Fab at 100 nM, absorbance at 450 nm
[11] = target: T10, Recombinant Human DLL4 (delta-like protein 4) (human, UniProt Q9NR61 27-524); experiment: ELISA, DLL4-coated plate, Fab in solution
T10 construct: Bought recombinant human DLL4 (R&D Systems Cat#1506-D4/CF); also called rHuman DLL4; Delta-like 4

[12] = target: T10, Recombinant Human DLL4 (delta-like …); experiment: ECL (MSD) binding assay, DLL4 on plate, Fab in solution
[13] = target: T11, Recombinant Human DLL4 (delta-like protein 4) (human, UniProt Q9NR61 27-524); experiment: ELISA, Fab on plate-coated DLL4
T11 construct: Bought recombinant human DLL4 (R&D Systems Cat#1506-D4/CF); also called rHuman DLL4; Delta-like 4

[14] = target: T11, Recombinant Human DLL4 (delta-like …); experiment: ECL (MSD) binding assay, Fab on immobilized DLL4

T7 sequence (P08581 25-932, change not shown): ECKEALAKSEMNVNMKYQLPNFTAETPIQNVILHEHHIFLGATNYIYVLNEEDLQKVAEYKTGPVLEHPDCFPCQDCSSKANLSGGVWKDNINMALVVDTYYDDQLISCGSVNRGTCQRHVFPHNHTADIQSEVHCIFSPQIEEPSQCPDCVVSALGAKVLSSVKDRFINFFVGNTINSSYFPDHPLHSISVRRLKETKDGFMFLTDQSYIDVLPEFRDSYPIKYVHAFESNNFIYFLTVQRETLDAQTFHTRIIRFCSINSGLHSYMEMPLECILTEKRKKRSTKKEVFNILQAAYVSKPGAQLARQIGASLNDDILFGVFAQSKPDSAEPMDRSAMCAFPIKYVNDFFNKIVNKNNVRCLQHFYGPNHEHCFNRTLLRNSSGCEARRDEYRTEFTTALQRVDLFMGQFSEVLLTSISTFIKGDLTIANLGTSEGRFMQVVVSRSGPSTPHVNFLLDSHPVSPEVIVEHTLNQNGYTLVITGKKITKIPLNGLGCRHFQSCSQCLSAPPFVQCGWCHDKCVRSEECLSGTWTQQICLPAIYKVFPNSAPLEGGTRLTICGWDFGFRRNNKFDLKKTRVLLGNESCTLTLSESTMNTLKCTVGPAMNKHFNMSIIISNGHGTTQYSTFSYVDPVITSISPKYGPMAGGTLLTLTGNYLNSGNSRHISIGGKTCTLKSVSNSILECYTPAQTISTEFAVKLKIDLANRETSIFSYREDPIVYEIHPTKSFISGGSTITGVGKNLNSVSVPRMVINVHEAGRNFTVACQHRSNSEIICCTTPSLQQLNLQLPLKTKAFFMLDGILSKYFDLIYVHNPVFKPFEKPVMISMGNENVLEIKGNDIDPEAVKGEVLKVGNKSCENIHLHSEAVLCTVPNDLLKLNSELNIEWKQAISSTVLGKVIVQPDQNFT

B1: Fab VH1-46_IGHD6-6*01_IGHJ1*01 S102A/S103P/S104F (APF) & L6_IGKJ1*01 Y32V (Fab, V domains shown)
VH: QVQLVQSGAEVKKPGASVKVSCKASGYTFTSYYMHWVRQAPGQGLEWMGIINPSGGSTSYAQKFQGRVTMTRDTSTSTVYMELSSLRSEDTAVYYCAREEYAPFSAEYFQHWGQGTLVTVSS
VL: EIVLTQSPATLSLSPGERATLSCRASQSVSSVLAWYQQKPGQAPRLLIYDASNRATGIPARFSGSGSGTDFTLTISSLEPEDFAVYYCQQRSNWPPWTFGQGTKVEIKR
notes: Fab format as for the parent (CH1 with His6/Flag tags, kappa CL); also called APF / Y32V
ECL signal [1]: 120
ECL signal [2]: 151
ECL signal [3]: 186
ECL signal [4]: 144
ECL signal [5]: 156
ECL signal [6]: 57
ECL signal [7]: 283
ECL signal [8]: 56

B2: Fab VH1-46_IGHD6-6*01_IGHJ1*01 S102A/S103P/S104F/H111F/S54A & L6_IGKJ1*01 S28N/S30D/S31H (Fab, V domains shown)
VH: QVQLVQSGAEVKKPGASVKVSCKASGYTFTSYYMHWVRQAPGQGLEWMGIINPAGGSTSYAQKFQGRVTMTRDTSTSTVYMELSSLRSEDTAVYYCAREEYAPFSAEYFQFWGQGTLVTVSS
VL: EIVLTQSPATLSLSPGERATLSCRASQNVDHYLAWYQQKPGQAPRLLIYDASNRATGIPARFSGSGSGTDFTLTISSLEPEDFAVYYCQQRSNWPPWTFGQGTKVEIKR
notes: also called H:APFF S54A & L:NDH
ECL Signal [10 nM Fab] [9]: 46700
ELISA Signal [100 nM Fab] [10]: 0.08

B3: Fab VH1-46_IGHD6-6*01_IGHJ1*01 S102A/S103P/S104F/H111F/G56A & L6_IGKJ1*01 S28N/S30D/S31H (Fab, V domains shown)
VH: QVQLVQSGAEVKKPGASVKVSCKASGYTFTSYYMHWVRQAPGQGLEWMGIINPSGASTSYAQKFQGRVTMTRDTSTSTVYMELSSLRSEDTAVYYCAREEYAPFSAEYFQFWGQGTLVTVSS
VL: EIVLTQSPATLSLSPGERATLSCRASQNVDHYLAWYQQKPGQAPRLLIYDASNRATGIPARFSGSGSGTDFTLTISSLEPEDFAVYYCQQRSNWPPWTFGQGTKVEIKR
notes: also called H:APFF G56A & L:NDH
ECL Signal [10 nM Fab] [9]: 71600
ELISA Signal [100 nM Fab] [10]: 0.2

B4: Fab VH1-46_IGHD6-6*01_IGHJ1*01 S102A/S103P/S104F/H111F & L6_IGKJ1*01 S28N/S30D/S31H (Fab, V domains shown)
VH: QVQLVQSGAEVKKPGASVKVSCKASGYTFTSYYMHWVRQAPGQGLEWMGIINPSGGSTSYAQKFQGRVTMTRDTSTSTVYMELSSLRSEDTAVYYCAREEYAPFSAEYFQFWGQGTLVTVSS
VL: EIVLTQSPATLSLSPGERATLSCRASQNVDHYLAWYQQKPGQAPRLLIYDASNRATGIPARFSGSGSGTDFTLTISSLEPEDFAVYYCQQRSNWPPWTFGQGTKVEIKR
notes: Tested as a Fab expressed in E. coli; also called H:APFF & L:NDH; APFF-NDH
ECL Signal [10 nM Fab] [9]: 49000
ELISA Signal [100 nM Fab] [10]: 0.08

B5: Fab VH5-51_IGHD5-18*01>3_IGHJ4*01 G100K/G104T G24L & V3-4_IGLJ1*01 (Fab, V domains shown)
VH: EVQLVQSGAEVKKPGESLKISCKLSGYSFTSYWIGWVRQMPGKGLEWMGIIYPGDSDTRYSPSFQGQVTISADKSISTAYLQWSSLKASDTAMYYCARRKYSYTYDYFDYWGQGTLVTVSS
VL: QTVVTQEPSFSVSPGGTVTLTCGLSSGSVSTSYYPSWYQQTPGQAPRTLIYSTNTRSSGVPDRFSGSILGNKAALTITGAQADDESDYYCVLYMGSGISYVFGTGTKVTVL
notes: Fab made in E. coli; also called KT G24L
ELISA (Signal-Noise) [11]: 0.09
ECL signal [12]: 19600

B6: Fab VH5-51_IGHD5-18*01>3_IGHJ4*01 G100K/G104T (KT) & V3-4_IGLJ1*01 S52C (Fab, V domains shown)
VH: EVQLVQSGAEVKKPGESLKISCKGSGYSFTSYWIGWVRQMPGKGLEWMGIIYPGDSDTRYSPSFQGQVTISADKSISTAYLQWSSLKASDTAMYYCARRKYSYTYDYFDYWGQGTLVTVSS
VL: QTVVTQEPSFSVSPGGTVTLTCGLSSGSVSTSYYPSWYQQTPGQAPRTLIYCTNTRSSGVPDRFSGSILGNKAALTITGAQADDESDYYCVLYMGSGISYVFGTGTKVTVL
notes: Tested as a Fab (VH-CH1 with His and Flag tags, lambda VL-CL); also called H:KT & L:S52C
ELISA signal [13]: 0.1
ECL signal [14]: 64300
